Assay results as given in patent publication US20040146519A1 (published 2004).
Like-named read-outs stand apart in the source and are kept apart here.

Columns and labels:
HLA-A*0203 [1] = target: HLA-A*0203 (human); test: inhibition of 125I probe peptide, purified HLA
HLA-A*0201 [2] = target: HLA-A*0201 (human); test: inhibition of 125I probe peptide, purified HLA
HLA-B*3501 = HLA-B*3501 (human); test: inhibition of 125I probe peptide, purified HLA
HLA-B*5401 = HLA-B*5401 (human); test: inhibition of 125I probe peptide, purified HLA
HLA-B*0702 = HLA-B*0702 (human); test: inhibition of 125I probe peptide, purified HLA
HLA-B*5301 = HLA-B*5301 (human); test: inhibition of 125I probe peptide, purified HLA
HLA-B*5101 = HLA-B*5101 (human); test: inhibition of 125I probe peptide, purified HLA
HLA-A*1101 = HLA-A*1101 (human); test: competition with 125I probe peptide for purified HLA
HLA-A*3301 = HLA-A*3301 (human); test: as above
HLA-A*0301 = HLA-A*0301 (human); test: as above
HLA-A*3101 = HLA-A*3101 (human); test: as above
HLA-A*6801 = HLA-A*6801 (human); test: as above
HLA-A*0202 [3] = target: HLA-A*0202 (human); test: inhibition of 125I probe peptide, purified HLA
HLA-A*6802 = HLA-A*6802 (human); test: competition with 125I probe peptide for purified HLA
HLA-A*0201 [4] = target: HLA-A*0201 (human); test: as above
HLA-A*0206 = HLA-A*0206 (human); test: as above
HLA-A*0202 [5] = target: HLA-A*0202 (human); test: as above
HLA-A*0203 [6] = target: HLA-A*0203 (human); test: as above
HLA-DRB1*0301 [7] = target: HLA-DRB1*0301 (human); test: competition with 125I probe peptide, purified HLA
HLA-DRB1*0301 [8] = target: HLA-DRB1*0301 (human); test: competition with 125I probe peptide, purified HLA; remark: listed apart in the source
HLA-DRB1*1302 = HLA-DRB1*1302 (human); test: competition with 125I probe peptide, purified HLA
HLA-DRB1*0701 = HLA-DRB1*0701 (human); test: inhibition of 125I probe peptide, purified HLA

| Binder | IC50 (HLA-B*3501) | IC50 (HLA-B*5401) | IC50 (HLA-B*0702) | IC50 (HLA-B*5301) | IC50 (HLA-B*5101) | other results |
| --- | --- | --- | --- | --- | --- | --- |
| ILIGVLVGV [CEA.691.L2] | – | – | – | – | – | IC50 (HLA-A*0203 [1]): 3.2 nM; IC50 (HLA-A*0201 [2]): 22 nM |
| FPQQHTQVI [CEA.632.F1I9] | 139 nM | 1.7 nM | 3.4 nM | – | – | – |
| FPQQHTQVL [CEA.632.F1, 9 AA] | – | – | 0.9 nM | 93 nM | 183 nM | – |
| TVSPSYTYYR [CEA.419.V2] | – | – | – | – | – | IC50 (HLA-A*1101): 3000 nM; IC50 (HLA-A*3301): 264 nM; IC50 (HLA-A*0301): 2340 nM |
| TVSPSYTYYK [CEA.419.V2K10] | – | – | – | – | – | IC50 (HLA-A*1101): 43 nM; IC50 (HLA-A*3101): 3670 nM; IC50 (HLA-A*6801): 6.7 nM |
| QLIGYVIGV [CEA.78.L2V9] | – | – | – | – | – | IC50 (HLA-A*0202 [3]): 5.9 nM |
| FPNNNGTI [CEA.646.F1] | – | 313 nM | 275 nM | 9300 nM | 19 nM | – |
| FPAYSGREI [CEA.92.F1] | 7200 nM | – | 2.1 nM | 664 nM | 183 nM | – |
| FPQQHTQI [CEA.632.F1, 8 AA] | – | – | 220 nM | 7750 nM | – | – |
| FPVSPRLQI [CEA.363.F1I9] | 5540 nM | – | – | 216 nM | – | – |
| FPVSPRLQL [CEA.363.F1] | 600 nM | – | 0.7 nM | 310 nM | 82 nM | – |
| IMIGVLVGVA [CEA.691 (10-mer IMIGVLVGVA)] | – | – | – | – | – | IC50 (HLA-A*6802): 1510 nM |
| FPGLSAGATI [CEA.680.F1, 10 AA] | – | 105 nM | 212 nM | 1480 nM | – | – |
| GIMIGVLVGV [CEA.690] | – | – | – | – | – | IC50 (HLA-A*0201 [4]): 64 nM; IC50 (HLA-A*0206): 142 nM; IC50 (HLA-A*0202 [5]): 205 nM; IC50 (HLA-A*0203 [6]): 31 nM; IC50 (HLA-A*6802): 500 nM |
| YLCGIQNSV [CEA.569L2] | – | – | – | – | – | IC50 (HLA-A*0206): 31 nM; IC50 (HLA-A*6802): 3480 nM |
| FPGVNLSL [CEA.428.F1] | 277 nM | 115 nM | 19 nM | 95 nM | – | – |
| FPWQRLLL [CEA.13.F1, 8 AA] | 1760 nM | 71 nM | – | 443 nM | 229 nM | – |
| RLQLSNDNRTLTLLS [CEA.368] | – | – | – | – | – | IC50 (HLA-DRB1*0301 [7]): 938 nM; IC50 (HLA-DRB1*0301 [8]): 938 nM; IC50 (HLA-DRB1*1302): 729 nM |

| Binder | IC50 (HLA-B*3501) | IC50 (HLA-B*5401) | IC50 (HLA-B*0702) | IC50 (HLA-B*5301) | IC50 (HLA-B*5101) | other results |
| --- | --- | --- | --- | --- | --- | --- |
| FPSAPPHRI [CEA.3.F1I9] | 3600 nM | 14 nM | – | 258 nM | 15 nM | – |
| FPQHLFGI [CEA.58.F1, 8 AA] | – | 0.4 nM | 393 nM | 1070 nM | 212 nM | – |
| FPQQHTQVLF [CEA.632.F1, 10 AA] | 51 nM | 556 nM | – | – | – | – |
| FPQQHTQVLI [CEA.632.F1I10] | 809 nM | 278 nM | 134 nM | – | – | – |
| RVLTLFNVTK [CEA.554.V42K10] | – | – | – | – | – | IC50 (HLA-A*1101): 32 nM; IC50 (HLA-A*3101): 234 nM; IC50 (HLA-A*6801): 2350 nM |
| QLIGYVIGV [CEA.78L2V9] | – | – | – | – | – | IC50 (HLA-A*0202 [5]): 5.9 nM |
| FPGLSAGI [CEA.680.F1I8] | 758 nM | – | – | 332 nM | 9 nM | – |
| RVLTLLSVTK [CEA.376.V2K10] | – | – | – | – | – | IC50 (HLA-A*3101): 164 nM; IC50 (HLA-A*6801): 5710 nM |
| ALVGIMIGV [CEA.687L2] | – | – | – | – | – | IC50 (HLA-A*0203 [6]): 31 nM; IC50 (HLA-A*6802): 102 nM |
| FPQHLFGYSI [CEA.58.F1I10] | 900 nM | – | 229 nM | – | 204 nM | – |
| FPPHRWCIPI [CEA.6.F1I10] | – | – | – | 8460 nM | 423 nM | – |
| FPHRWCIPI [CEA.7.F1I9] | 257 nM | 1.9 nM | 2.5 nM | 135 nM | – | – |
| FPDAPTISPI [CEA.236.F1I10] | 1330 nM | 278 nM | 183 nM | 1020 nM | – | – |
| FPDAPTISPL [CEA.236.F1] | 327 nM | 714 nM | – | 1940 nM | 290 nM | – |
| FPWQRLLLTI [CEA.13.F1I10] | 2120 nM | 4.2 nM | 290 nM | 78 nM | – | – |
| ILIGVLVGV [CEA.691L2] | – | – | – | – | – | IC50 (HLA-A*0201 [4]): 22 nM; IC50 (HLA-A*0203 [6]): 3.2 nM |
| LWWVNNQSLPVSPRL [CEA.177] | – | – | – | – | – | IC50 (HLA-DRB1*0701): 3050 nM |
